Test results reported in publication PMC12666658.

Experiments:
[1] = target: CD3 receptor on T cells (human PBMCs) (human (endogenous in PBMCs)) (UniProt P07766)
[2] = target: CD3 receptor on T cells (human PBMCs) (human (endogenous in PBMCs)) (UniProt P07766); remark: listed apart in the source
[3] = target: CD3 receptor on T cells (human PBMCs) (human (endogenous in PBMCs)) (UniProt P07766); remark: listed apart in the source

Sequence of UniProt P07766 (P07766 23-207): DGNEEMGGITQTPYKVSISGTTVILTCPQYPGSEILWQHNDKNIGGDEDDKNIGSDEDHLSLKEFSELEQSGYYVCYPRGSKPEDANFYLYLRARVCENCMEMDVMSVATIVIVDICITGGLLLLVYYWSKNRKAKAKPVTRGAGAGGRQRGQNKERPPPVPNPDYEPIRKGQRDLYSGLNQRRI

Q: How did the fold increase of CD71 on CD3+ T cells (PBMCs co-cultured with Gb3+ Ramos cells), 5 or 10 nM lectibody, 24 and 48 hours; highest at 10 nM and 48 hours [1] turn out when “SadP-scFv UCHT1 lectibody (from UniProt G5DSS1)” was run?
A: 25 fold

Q: And the fold increase of CD69 on CD3+ T cells (PBMCs co-cultured with Gb3+ Ramos cells), 5 or 10 nM lectibody, 18 and 24 hours; highest at 10 nM and 24 hours [2]?
A: 5 to 8 fold

Q: What about the specific lysis of Gb3+ Ramos cells by PBMCs (E:T 5:1), bioluminescence-based cytotoxicity assay, 0.2–10 nM lectibody, 7 to 48 hours; highest at 10 nM and 48 hours [3] of the same substance?
A: 65%
